For orientation: Kd means the constant that tells how readily two partners part at equilibrium. In general, koff refers to the rate constant with which the complex falls apart. For orientation: kon means a measure of how fast the partners come together.

The values below come from paper PMC5098251 (Scientific Reports, 2016).

In assay [1] the target is T1, recombinant human FasR (Homo sapiens, UniProt P25445).
T1 construct: Fas receptor (FasR, CD95), human, recombinant; The FasR of the BLI and SPR experiments; Details are in Supplementary Protocols 8-10; also called recombinant FasR
Nature of the assay: BLI; Octet Red384; recombinant human FasR; 1:1 Langmuir model; at least in duplicate; who was immobilised is not told (Supplementary Protocols 8-10). Particulars: both partners purified.

In assay [2] the target is T1, recombinant human FasR. The assay can be described thus: SPR; BIAcore T100; low density IgG-coated chip surface, recombinant human FasR; 1:1 Langmuir model; at least in duplicate. As to conditions: both partners purified. Background: In SPR one partner is held on a chip, and binding of the other changes the refractive index at the surface.
The target of assay [3] is T2, FasR-Fc (Fc-fused Fas receptor) (Homo sapiens, UniProt P25445).
T2 construct: Fas receptor (FasR, CD95), human; also called Fas-Fc; CD95; source: bought: R&D Systems
The assay can be described thus: on-bead binding assay read by flow cytometry (Bead Surface Display); SNAP-scFv-HA made by in vitro transcription/translation and held on streptavidin beads through BG-DNA anchors; beads incubated 1 h at room temperature with FasR-Fc (1 nM unless stated; 1, 10 and 30 nM in Fig. 2B), then with DyLight488-labelled goat anti-Fc; 1.5% marvel in PBS, washes with PBS and 0.05% Tween 20. As to conditions: one partner purified. (Flow cytometry measures light scatter and fluorescence of single cells or particles in a stream.)

T1 sequence (P25445 26-335): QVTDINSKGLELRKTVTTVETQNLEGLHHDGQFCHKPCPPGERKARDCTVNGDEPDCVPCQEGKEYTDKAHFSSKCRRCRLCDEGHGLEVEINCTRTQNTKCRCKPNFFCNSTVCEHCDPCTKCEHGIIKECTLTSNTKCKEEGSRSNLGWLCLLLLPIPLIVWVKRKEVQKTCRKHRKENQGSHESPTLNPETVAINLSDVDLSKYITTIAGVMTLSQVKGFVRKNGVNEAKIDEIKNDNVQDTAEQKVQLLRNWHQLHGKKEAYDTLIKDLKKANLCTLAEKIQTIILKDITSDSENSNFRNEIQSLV
T2 sequence (P25445 26-173): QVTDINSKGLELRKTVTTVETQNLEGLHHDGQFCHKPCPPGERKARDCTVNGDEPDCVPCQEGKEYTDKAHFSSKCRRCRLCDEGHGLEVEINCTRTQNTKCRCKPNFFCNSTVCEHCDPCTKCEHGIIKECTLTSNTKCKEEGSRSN

B1: anti-Fas receptor scFv E09 (scFv, V domains shown)
VH: QLQLQESGPGLVKPSETLSLTCTVSGASISANSYYGVWVRQSPGKGLEWVGSIAYRGNSNSGSTYYNPSLKSRATVSVDTSKNQVSLRLTSVTAADTALYYCARRQLLDDGTGYQWAAFDVWGQGTMVTVSS
VL: QSVLTQPPSVSEAPRQTVTISCSGNSFNIGRYPVNWYQQLPGKAPKLLIYYNNLRFSGVSDRFSGSKSGTSASLAIRDLLSEDEADYYCSTWDDTLKGWVFGGGTKVTVL
notes: VH of E09; scFv linker; VL of E09; also called parent; wild-type E09
For the molecule B1, in the assay with recombinant human FasR [1], the Kd was determined as 7.6 nM, the koff came to 0.000956 s⁻¹ and the kon is 236000 M⁻¹ s⁻¹.

B2: A07a IgG (antibody, V domains shown)
VH: QLQLQESGPGLVKPSETLSLTCTVPGASISANSYYGVWVRQSPGKGLEWVGSIAYRGNSNSGSTYYNPSLKGRATVSVDTSKNQVSLRLTSVTAADTALYYCARRQLLDDGTGYQWAAFDNWDQGTMVTVSS
VL: QSVLTQPPSVSEAPRQTVTISCSGNSFNIGRYPVNWYQQLPGKAPKLLIYSNNLRFSGVSDRFSGSKSGTSASLAIRDLLSEDEADYYCSTWDDTLKGWVFGGGTKVTVL
notes: numbers count on: Kabat numbering; IgG heavy constant region; light constant region; IgG made from the scFv A07a
B2: in the assay with recombinant human FasR [1], the equilibrium dissociation constant (Kd) came to 1.02 nM, the koff was determined as 0.000171 s⁻¹ and the association rate constant (kon) was 277000 M⁻¹ s⁻¹. Also, in the assay with recombinant human FasR [2], the Kd was determined as 0.29 nM, the off-rate constant (koff) was 6.7e-05 s⁻¹ and the kon was determined as 230000 M⁻¹ s⁻¹.

B3: A03a scFv (scFv, V domains shown)
VH: QLQLQESGPGLVKPSETLSLTCTVPGASISANSYYGVWVRQSPGRGLEWVGSIAYRGNSNSGSTYYNPSLKSRATVSVDTSKNQVSLRLTSVTAADTALYYCARRRLLDDGTGYQWAAFDNWDQGTMVTVSS
VL: QSVLTQSPSVSEAPRQTVTISCSGNSFNTGRYPVNWYQQLPGKAPKLLIYSNNLRLSGVSDRFSGSKSGTSASLAIRDLLSEDEADYYCSTWDDTLEGWVFGGGTKVTVL
notes: numbers count on: Kabat numbering; scFv linker, as in m6; Selected by BeSD, round IV
Regarding B3, in the assay with recombinant human FasR [1], the dissociation constant Kd worked out at 1.09 nM, the koff came to 0.000181 s⁻¹ and the kon was 240000 M⁻¹ s⁻¹.

B4: A05a scFv (scFv, V domains shown)
VH: QLQLQESSPGLVKPSETLSITCTVPGASISANSYYGVWVRQSPGKGLEWVGSIAYRGNSNSGSTYYNPSLKSRATVSVDTSKNQVSLRLTSVTAADTALYYCARRQLLDDGTGYQWAAFDVWGQGTMVTVSS
VL: QSVLTQPPSVSEAPRQTVTISCSGNSFNIGRYPVNWYQQLPGKAPKLLIYHNNLRFSGVSDRFSGSKSGTSASLAIRDLLSEDEADYYCSTWDDTLKGWVFGGGTKVTVL
notes: numbers count on: Kabat numbering; scFv linker, as in m6; Most abundant variant of round IV; the same as the Clade 2 consensus R4aH; also called R4aH
As for B4, in the assay with recombinant human FasR [1], the Kd was found to be 2.89 nM, the koff amounted to 0.00039 s⁻¹ and the kon was determined as 153000 M⁻¹ s⁻¹.

B5: A01b scFv (scFv, V domains shown)
VH: QLQLQESGPGLVKPSETLSLTCTVPGASISANSYYGVWIRQSPGKGLEWVGSIAYRGNSNSGSTYYNPSLKSRATVSVDTSKNRVSLRLTSVTAADTALYYCARRQLLDDGTGYQWAAFDVWGQGTMVTVPS
VL: QSVLTQPPSVSEVPRQTVTISCSGNSFNIGRYPVNWYQQLPGKAPKLLIYHNNLRFSGVSDRFSGSKSGTSASLAIRDLLSEDEADYYCSTWDDTLKGWVFGGGTKVTVL
notes: as for B3
As to B5, in the assay with recombinant human FasR [1], the Kd came out at 2.15 nM, the off-rate constant (koff) was found to be 0.000272 s⁻¹ and the kon was 168000 M⁻¹ s⁻¹.

B6: SNAP-E09_Y58S scFv-HA (scFv, V domains shown)
VH: QLQLQESGPGLVKPSETLSLTCTVSGASISANSYYGVWVRQSPGKGLEWVGSIAYRGNSNSGSTSYNPSLKSRATVSVDTSKNQVSLRLTSVTAADTALYYCARRQLLDDGTGYQWAAFDVWGQGTMVTVSS
VL: QSVLTQPPSVSEAPRQTVTISCSGNSFNIGRYPVNWYQQLPGKAPKLLIYYNNLRFSGVSDRFSGSKSGTSASLAIRDLLSEDEADYYCSTWDDTLKGWVFGGGTKVTVL
notes: whole scFv (VH, linker, VL) as in m3 (E09) with Y58S; not shown: SNAP-tag, N-terminal, kept; HA, C-terminal, kept
For B6, in assay [3], the binding result is reported as “binds”.

B7: Ep6b_B01 IgG (antibody, V domains shown)
VH: QLQLQESGPGLVKPSETLSLTCTVSGASISANSYYGVWVRQSPGKGLEWVGSIAYRGNSNSGSTYYNPSLKSRATVSVDSSKNQVSLRLTSVTAADTALYYCARRQLLDDGTGYQWAAFDVWGQGTMVTVSS
VL: QSVLTQPPSVSEAPRQTVTISCSGNSSNIGRYPVNWYQQLPGKAPKLLIYSDNLRFSGVPDRFSGSKSGTTASLAIRDLLSEDEADYYCSTWDDTLEGWVFGGGTKVTVL
notes: numbers count on: Kabat numbering; IgG heavy constant region; light constant region; IgG
As to B7, in the assay with recombinant human FasR [1], the Kd came out at 0.23 nM, the off-rate (koff) worked out at 5.9e-05 s⁻¹ and the kon is 402000 M⁻¹ s⁻¹. In addition, in the assay with recombinant human FasR [2], the Kd was determined as 0.06 nM, the off-rate (koff) was 4.4e-05 s⁻¹ and the kon was 746000 M⁻¹ s⁻¹.

B8: E09 IgG (antibody, V domains shown)
VH: QLQLQESGPGLVKPSETLSLTCTVSGASISANSYYGVWVRQSPGKGLEWVGSIAYRGNSNSGSTYYNPSLKSRATVSVDTSKNQVSLRLTSVTAADTALYYCARRQLLDDGTGYQWAAFDVWGQGTMVTVSS
VL: QSVLTQPPSVSEAPRQTVTISCSGNSFNIGRYPVNWYQQLPGKAPKLLIYYNNLRFSGVSDRFSGSKSGTSASLAIRDLLSEDEADYYCSTWDDTLKGWVFGGGTKVTVL
notes: VH: as the VH of m6 (E09); IgG heavy constant region; VL: as the VL of m6 (E09); light constant region; IgG; also called parent
For the molecule B8, in the assay with recombinant human FasR [1], the dissociation constant Kd came out at 15.7 nM, the koff was 0.00266 s⁻¹ and the kon worked out at 236000 M⁻¹ s⁻¹. Also, in the assay with recombinant human FasR [2], the dissociation constant (Kd) amounted to 13.7 nM, the koff is 0.00239 s⁻¹ and the kon was 174000 M⁻¹ s⁻¹.
